Assay results from patent US20210309981, “VARIANT TYPE V CRISPR/CAS EFFECTOR POLYPEPTIDES AND METHODS OF USE THEREOF” (The Regents of the University of California, published 2021).

Target: T1, dCasX (D672A-E769A-D935A) (Deltaproteobacteria, D672A,E769A,D935A)
T1 chain: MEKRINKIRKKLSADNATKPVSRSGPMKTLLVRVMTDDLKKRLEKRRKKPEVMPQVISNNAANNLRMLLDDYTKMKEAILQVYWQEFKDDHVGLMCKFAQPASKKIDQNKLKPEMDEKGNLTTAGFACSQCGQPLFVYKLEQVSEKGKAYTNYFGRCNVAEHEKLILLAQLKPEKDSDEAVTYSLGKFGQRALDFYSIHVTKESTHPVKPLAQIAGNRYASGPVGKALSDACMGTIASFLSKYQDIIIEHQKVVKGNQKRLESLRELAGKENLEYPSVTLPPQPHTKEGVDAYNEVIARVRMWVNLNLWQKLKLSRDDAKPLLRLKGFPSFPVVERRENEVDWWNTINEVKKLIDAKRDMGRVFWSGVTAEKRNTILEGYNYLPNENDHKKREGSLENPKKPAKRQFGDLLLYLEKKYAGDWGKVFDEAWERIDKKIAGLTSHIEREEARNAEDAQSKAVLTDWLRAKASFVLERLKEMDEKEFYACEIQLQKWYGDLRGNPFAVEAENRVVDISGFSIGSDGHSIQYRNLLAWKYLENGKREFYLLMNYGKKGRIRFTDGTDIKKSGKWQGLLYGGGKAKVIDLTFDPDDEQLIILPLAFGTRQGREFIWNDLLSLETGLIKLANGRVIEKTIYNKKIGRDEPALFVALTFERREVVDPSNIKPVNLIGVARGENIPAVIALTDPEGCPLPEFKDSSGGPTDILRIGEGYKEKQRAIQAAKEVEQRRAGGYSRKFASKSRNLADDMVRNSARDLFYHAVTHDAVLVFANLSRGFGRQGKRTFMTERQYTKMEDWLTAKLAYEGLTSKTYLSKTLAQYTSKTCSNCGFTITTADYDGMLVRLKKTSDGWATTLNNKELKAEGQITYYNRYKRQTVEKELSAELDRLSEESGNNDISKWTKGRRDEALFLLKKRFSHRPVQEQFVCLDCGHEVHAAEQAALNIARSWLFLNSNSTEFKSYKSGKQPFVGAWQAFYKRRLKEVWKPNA
Experiment: structure; binary CasX-gRNA complex by SEC and cryo-EM; wild-type vs triple mutant not explicitly stated
Details: tags: 2CT-10 vector; tag removed by TEV

B1: CasX sgRNA (in vitro transcribed; listed sequence is the DNA transcription template) (ssRNA)
RNA: GGCGCGUUUAUUCCAUUACUUUGGAGCCAGUCCCAGCGACUAUGUCGUAUGGACGAAGCGCUUAUUUAUCGGAGAGAAACCGAUAAGUAAAACGCAUCAAAGUCCUGCAGCAGAAAAUCAAA
binding result: binds
